Test results published in PMC3138754, “α-SNAP Prevents Docking of the Acrosome during Sperm Exocytosis because It Sequesters Monomeric Syntaxin” (PLoS ONE, 2011).

Target: T1, syntaxin1 (1–262), cytosolic domain (UniProt P32851 1-262)
T1 construct: syntaxin1 residues 1-262 (cytosolic domain); pET28a plasmid from D. Fasshauer; rat syntaxin 1A is surmised from the source of the plasmid; also called syntaxin 1–262; cytosolic domain of syntaxin1; source: E. coli BLR(DE3), pET28a plasmid, extracted in 6 M urea, purified on Ni-NTA with renaturing during the washing step
Experiment: co-IP; 0.9 µM syntaxin 1-262 with 1, 2.5 or 5 µM α-SNAP wild type or M105I, NSF and ATP omitted; anti-syntaxin immunoprecipitation, anti-α/β-SNAP blot, densitometry normalised to syntaxin
Conditions: both partners purified

T1 sequence (P32851 1-262): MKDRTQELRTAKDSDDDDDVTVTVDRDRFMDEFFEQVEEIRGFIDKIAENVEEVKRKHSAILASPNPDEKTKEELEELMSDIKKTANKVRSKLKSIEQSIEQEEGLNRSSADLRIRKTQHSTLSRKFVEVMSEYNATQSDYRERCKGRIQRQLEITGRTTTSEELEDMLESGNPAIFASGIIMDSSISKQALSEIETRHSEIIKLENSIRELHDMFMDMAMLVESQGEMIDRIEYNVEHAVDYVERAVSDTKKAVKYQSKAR

B1: α-SNAP-M105I (natural protein, UniProt P81125 1-295, looked up)
chain: MDNSGKEAEAMALLAEAERKVKNSQSFFSGLFGGSSKIEEACEIYARAANMFKMAKNWSAAGSAFCQAAHVHLQLQSKHDAATCFVDAGNAFKKADPQEAINCLIRAIEIYTDMGRFTIAAKHHISIAEIYETELVDIEKAIAHYEQSADYYKGEESNSSANKCLLKVAGYAAQLEQYQKAIDIYEQVGTNAMDSPLLKYSAKDYFFKAALCHFCIDMLNAKLAVQKYEELFPAFSDSRECKRIKKLLEAHEEQNVDSYTEAVKEYDSISRLDQWLTTMLLRIKKTIQGDEEDLR
notes: α-SNAP with the point mutation M105I that occurs in hyh mice; pET28 plasmid from P. Hanson; called one of the three full length proteins; also called M105I mutant; the mutant of the hyh mouse; source: E. coli BLR(DE3), pET28 plasmid, purified (Ni-NTA, native conditions)
- fold amount recovered with syntaxin against the wild type: 2 fold
